± gives the half width of the 95% confidence interval.
What was measured:
[1] = folding stability dG unfold from trypsin proteolysis; higher = more stable
Method in brief: (§1)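 Bayesian fitting of sequencing counts gave K50 for each design. Unfolding free energy followed by setting this against a sequence-predicted unfolded-state K50 and a shared folded-state K50, either per protease or with trypsin and chymotrypsin combined. The designs, under 80 residues and lacking cysteine, were digested in a PA-tagged cDNA display format at 11 threefold-diluted protease concentrations and without protease, and only those with AlphaFold2 dimer inter-PAE above 15 were kept.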

[2] = folding stability dG unfold (combined trypsin and chymotrypsin); higher = more stable
Method in brief: as §1

[3] = folding stability dG unfold from chymotrypsin proteolysis; higher = more stable
Method in brief: as §1

Row | Sequence | folding stability dG unfold [1] [kcal/mol] | folding stability dG unfold [2] [kcal/mol] | folding stability dG unfold [3] [kcal/mol]
1 | SVVRLPNGEWFEVDGRLVRVTVDEETGEIVDVEVYEVTVEEPPPPPPPLEVTVTVEPDAPPGATITITVTSA [r9_90_TrROS_Hall] | 1.8 ± 0.13 | 1.5 ± 0.27 | 1.48 ± 0.12
2 | SAGGMIKIEKEEDGTLRITIVVPEKEEEAEELAEKLKEKLKELGVEEVKIEVVEKDGKVVVEIEVKKSAGGS [r8_113_TrROS_Hall] | 2.29 ± 0.1 | 2.53 ± 0.13 | 2.77 ± 0.16
3 | SMKPYVYTHPEGITIPMFVLPDGTIKIEVTAFDPNNPVPLGKATATMDPATGTLNLTLPNGTSLSYTIPASA [r9_56_JUSTAS] | 2.45 ± 0.065 | 2.5 ± 0.16 | 2.46 ± 0.1
4 | SAGGSAGGSSSMTLTTDDGSTLDSVTRDPNSDTATVTYSGSGETVTATATTLPDGSVVVTVVTSAGGSAGGS [r12_839_JUSTAS] | 1.26 ± 0.054 | 1.08 ± 0.11 | 0.784 ± 0.092
5 | SASFTLTITPVSTLPGGEVKYEVTVTTPTATVTLSATYDPATGLITVTFPETGSTVTFDPATGTVTVTPSAG [r14_260_JUSTAS] | 3.93 ± 0.12 | 5.05 ± 0.083 | 5.089 ± 0.032
6 | SAGGSPTVTFDPETGAVTVTVNGQTQTAYIPPGDKVTLTVTFQSGGSGVPFTLELEVTVTPPKPLKSAGGSA [r2_116_TrMRF] | 1.45 ± 0.074 | 2.17 ± 0.12 | 2.48 ± 0.061
7 | SSSIKTSTTTSTEPATGTTTTTTTVTYPDGTTTTTTTTTLPDGTTTVTTTTTPPDGSVTSTTTTLTSLTTTS [r1_461_JUSTAS] | 1.24 ± 0.1 | 0.904 ± 0.17 | 0.655 ± 0.043
8 | SAGGSAGGSAMTPVTTTQTISFPGSEEEARAEAERIREELEAKGLTVSFEFLPGGTLKITVASAGGSAGGSA [r18_262_JUSTAS] | 3.18 ± 0.064 | 2.74 ± 0.038 | 2.398 ± 0.021
9 | SAVITLPDGTTVPSTVVEETETPDGVRITVRTERDGVLEIVDLYEPPGGEVTVLSTEVVPVPPGDPALESAG [r14_13_JUSTAS] | 0.518 ± 0.028 | 0.285 ± 0.091 | -0.00381 ± 0.062
10 | SAGGSAGGSAGAGSWKDALKASSNETVTIPLPPTGKTLKITFSKSDDGSWKVDIEVFPAESAGGSAGGSAGG [r11_13_TrMRF] | 2.03 ± 0.13 | 2.12 ± 0.15 | 2.18 ± 0.079
11 | SAGEPLVPLSEYELDVPGGQKVKIEIYALPDGTVVVRITDSEGNESEITIPRAELEKLSPEEIVARLSSAGG [r19_47_JUSTAS] | 3.71 ± 0.14 | 3.67 ± 0.098 | 3.57 ± 0.093
12 | SAGMKIETIPEVDYVVIEIDAKSLEEAIETLKYLTEKLGLKKVIAVADPTSNKVIAIAEVGNPEALEKLSAG [r5_598_TrMRF] | 2.33 ± 0.07 | 1.96 ± 0.1 | 1.56 ± 0.057
13 | SAGGSAGGSASPAPDTLYVPVVFDVVFPLPDGSYVLVPVLAYYQLPGGTLLASVRFAVTFDSAGGSAGGSAG [r3_484_TrMRF] | 2.77 ± 0.16 | 3.86 ± 0.2 | 4.28 ± 0.098
14 | SAGGEDELRPITPEELKALFDRLAAAHGLESEILEVEEPEDVVIVTARIRHGDTVLEVTVAFPVAKDPSAGG [r13_652_TrMRF] | 2.65 ± 0.14 | 2.91 ± 0.15 | 2.97 ± 0.1
15 | SAPPDFKIKDVKVRRHPHKQEDGGKEKEFPMYHVNVRIEDPNGNKIPINFMMDDPEEMLRFARKLLKKLSAG [r14_36_TrROS] | 2.2 ± 0.14 | 2.14 ± 0.25 | 2.17 ± 0.2
16 | SAGGSAGGSKKKVVIEVVIKVKKEDEEKIKKALEKELEKLGFKVKEVKVERTKNYVKVTVVLESAGGSAGGS [r12_731_TrROS_Hall] | 2.7 ± 0.17 | 3.63 ± 0.28 | 3.89 ± 0.2
17 | SAGGSAGGSMEEVEVFELEDGTLLVLVRVDGKEELIEIPLDDLKKLPNVKEVKIFPVKKVEKPSAGGSAGGS [r12_343_TrROS_Hall] | 0.803 ± 0.052 | 1.21 ± 0.086 | 1.43 ± 0.057
18 | SMETPPEELVERVREYLASQGYTVTSVEVTPLPDGSVRVEVTATPPDASTTLTITVTVPPDGTVVVEVTAQS [r1_460_JUSTAS] | 3.76 ± 0.2 | 5.3 ± 0.15 | 5.26 ± 0.12
19 | SAGGSAGGSAGGGMSIEEVKAKIEEEVGVEVSIEKVSGNTYKITLPKNNETYTIKIPKKSAGGSAGGSAGGS [r10_1032_JUSTAS] | 0.396 ± 0.062 | 0.373 ± 0.25 | -0.126 ± 0.3
20 | SAGPVVEVKPLETQALPDGSVRVVAEVTIKDPNSEKTTVVTVEATARVAPDGRPVSIEEIVEKAIKELKSAG [r5_604_JUSTAS] | 0.801 ± 0.043 | 1.06 ± 0.057 | 1.26 ± 0.046
21 | SAGGSAGGSAGGLGPDEKPKVKYLALIYDPETGEVTVVPADKLDKVLKETDASVSLFPVSAGGSAGGSAGGS [r10_1121_TrMRF] | 0.351 ± 0.1 | 0.565 ± 0.2 | 0.401 ± 0.1

Row | Sequence | folding stability dG unfold [1] [kcal/mol] | folding stability dG unfold [2] [kcal/mol] | folding stability dG unfold [3] [kcal/mol]
22 | SAGGSAGGSAGMPIKTLKTTLVSVEKEPPGEGSYITTKSVTEFPDGSKSVTTTTVPASLLSAGGSAGGSAGG [r17_268_JUSTAS] | -0.653 ± 0.59 | -0.576 ± 0.44 | -0.228 ± 0.27
23 | SAGPIKIVVNPDGMLIMVFPHPDGSLMVMIFTFKPNPKNGKRRFEMEMIMIDPDPGDPHVMTMRFEIPPSAG [r5_424_TrROS] | 3.37 ± 0.15 | 4.08 ± 0.18 | 4.88 ± 0.09
24 | SAGGSAGGSAGKKKLVIEQRPDGLVRIRLPNGKVLEVSREELEELAKELGIDKVEIYPVPSAGGSAGGSAGG [r11_312_TrROS_Hall] | 1.58 ± 0.025 | 1.83 ± 0.05 | 2.067 ± 0.019
25 | SPLERLLRAILNAPADTTIVVPLPDDLVAVIRIEPATTELDGVPYRFLVARIEIRNPDGVLLGELTLVLPLS [r1_386_TrMRF] | 3.88 ± 0.086 | 5.63 ± 0.11 | 5.78 ± 0.091
26 | SAGGSAAVGTSKGANVVTVRVEELEDKVVVYRYDPATGTVRVIVIDKPTGKALETKTFPVLPDQDASAGGSA [r15_425_TrMRF] | 1.01 ± 0.018 | 1.65 ± 0.049 | 1.95 ± 0.047
27 | SAGGSAGGSAMETYEIEVNGKLITITRSEDGTYKITDKDTGKTITIPAEDLKKLKPGDKLLSAGGSAGGSAG [r3_256_TrROS_Hall] | 1.79 ± 0.078 | 2.15 ± 0.14 | 2.18 ± 0.036
28 | SAGGSALPIETPSDGVVPYTDPVTGKTYTVTFRRDEGKTSFRVEEPESSATREVTEPVSVTEAVLTSAGGSA [r15_234_JUSTAS] | -0.219 ± 0.12 | 0.000309 ± 0.084 | 0.069 ± 0.13
29 | SAGMNKIYRLNEPVKNITFSSSELENLFKDPNIDRIAVFHPDKPAIIPFPDGKISGEFPPNITIVLFGSAGG [r19_152_TrMRF] | 0.661 ± 0.15 | 0.385 ± 0.2 | -0.0733 ± 0.5
30 | SAGGSAGGSMKIKIEVDKETGYIVIEAEPGETIEIEIGGKKIKMEVIENEDGSLYFVFKIEKPSAGGSAGGS [r12_970_TrROS_Hall] | 2.23 ± 0.12 | 3.6 ± 0.24 | 4.06 ± 0.085
31 | SPEVPPGKTLEREFKGVPVRLTREEESGTIHITVYPPTDPSKPLYEAEFSPDELRPIPLPPEVAAALAAESA [r9_1051_JUSTAS] | -0.681 ± 0.24 | -0.13 ± 0.16 | 0.0553 ± 0.1
32 | SIRPGQRIDSLEEVKEIAHRIAEEIQKEHGHPYKVTVNVEYYPEEDGRWYVKAKWYMPNNGKPIREITIMSA [r9_794_TrROS] | 1.53 ± 0.059 | 1.71 ± 0.19 | 1.88 ± 0.1
33 | SAGGGTATVTTAEAELPGDVRVTTATVTLPDGSAVRVVTLSSSVPNATATVVVPLPANGPGEGVIVLPSAGG [r13_323_TrMRF] | 1.44 ± 0.073 | 1.15 ± 0.069 | 0.785 ± 0.056
34 | SALPYEVEKTSETFLPEEGLTVTEYKITLPDGSELYRRETFDPKTGVRTVTVYDPNGKKLETRTFTVPPSAG [r14_759_JUSTAS] | 2.19 ± 0.038 | 2.4 ± 0.046 | 2.49 ± 0.048
35 | SAGGSAISEEEPFVKIKVELESEPKEIILPKSDIVKIEVDEPDKIATIYLPSTGKFFPFKVLSVENSAGGSA [r15_495_TrMRF] | 0.332 ± 0.079 | -0.0342 ± 0.27 | -0.343 ± 0.44
36 | SAGGSAGGSARRDEVVERARERLLEEHPDLKPGETATVVVRDPETDEVYVFRFDGDGRVYGSAGGSAGGSAG [r3_441_TrMRF] | 0.59 ± 0.09 | 1.31 ± 0.16 | 1.59 ± 0.11
37 | SAGGMSSSSYTYTTPLSSLKAAHPDLSEEELLALAKEAAKAALEAEGVPVSSVTATLAPDGTLTIVDSAGGS [r8_368_JUSTAS] | 0.862 ± 0.065 | 0.834 ± 0.14 | 0.634 ± 0.12
38 | SAGGMKKPIKAKIKIVKFEDGYLILIELPDGKIIAFKSPEELKAALEKFPEIEITEIEIIPPEEFLKKSAGG [r13_730_TrMRF] | 1.63 ± 0.067 | 3.07 ± 0.22 | 3.47 ± 0.19
39 | SAGGSAMTVTTTTSVDPKTGIITTTVSVNGTPVFTGTSIVAPGGEVAETFGTYTYDPETGTVTVTGSAGGSA [r15_770_JUSTAS] | 1.7 ± 0.067 | 1.43 ± 0.086 | 1.17 ± 0.049
40 | SAGGKKKKPERVEVTIVLPPEILEAIKAGKPLTKEEIAKLLGLPPGAEIKIERREDGYLVIKITLPKSAGGS [r16_679_TrROS_Hall] | 1.61 ± 0.03 | 2.8 ± 0.069 | 3.19 ± 0.044
41 | SAGGSAGGMRVRLTFPDGSVVELDLSSLPFSPEEVERAGEEELRALLEEAYPDREIELERVPEPSAGGSAGG [r6_165_JUSTAS] | 2.13 ± 0.056 | 2.63 ± 0.051 | 2.93 ± 0.032
42 | SAGGSAGGSMKPGEKVKVEIVSYDEKTKELTIKITYGPKKTKTITIKPKTKEEALEQLKKLLKSAGGSAGGS [r20_167_TrROS_Hall] | 1.93 ± 0.17 | 2.6 ± 0.27 | 3.14 ± 0.051
